US20250388673A1 (HIFIBIO, published 2025)

T1: human BTLA (human, UniProt Q7Z6A9 31-289)
T1 construct: also called hBTLA; HEK293.hBTLA
T1 sequence: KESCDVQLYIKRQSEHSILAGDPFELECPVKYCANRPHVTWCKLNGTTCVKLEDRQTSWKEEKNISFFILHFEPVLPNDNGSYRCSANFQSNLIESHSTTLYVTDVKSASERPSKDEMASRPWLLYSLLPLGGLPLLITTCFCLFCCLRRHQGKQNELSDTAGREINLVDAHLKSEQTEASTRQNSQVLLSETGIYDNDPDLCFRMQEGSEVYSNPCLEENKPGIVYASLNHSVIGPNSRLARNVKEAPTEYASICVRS

B1: HFB6-4-hG1 (human-mouse chimeric monoclonal antibody) (antibody, human IgG1, kappa, V domains shown)
VH: EVQLQQSGAELVNPGASVKLSCTTSGFNIKDTYIHWVKQRPEQGLEWIGRNDPANGNTKYDPKFQGKATITADTSSSTAYLQLSSLTSEDTAVYYCASYEGYYERFGYWGQGTLVTVSA
VL: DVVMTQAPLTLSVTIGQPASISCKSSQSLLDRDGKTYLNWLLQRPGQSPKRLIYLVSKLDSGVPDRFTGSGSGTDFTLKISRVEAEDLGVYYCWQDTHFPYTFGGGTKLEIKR
notes: also called HFB6-4 parental antibody
B2: HFB6-4hz21-hG1 (antibody, human IgG1, V domains shown)
VH: EVQLVESGGGLVQPGRSLRLSCTTSGFNIKDTYIHWFRQAPGKGLEWVGRNDPANGNTKYTASFKGRATISADGSKSIAYLQMNSLKTEDTAVYYCASYEGYYERFGYWGQGTLVTVSS
VL: DIVMTQSPDSLAVSLGERATINCKSSQSLLDRDGKTYLNWLQQKPGQSPKRLIYLVSKLDSGVPDRFSGSGSGTDFTLTISSLQAEDLAVYYCWQDTHFPYTFGQGTKLEIK
notes: Humanized variant of HFB6-4, human IgG1 (hG1)
B3: HFB6-4hz24-hG1 (antibody, human IgG1, V domains shown)
VH: EVQLVQSGAEVKKPGESLKISCKTSGFNIKDTYIHWVRQMPGKGLEWIGRNDPANGNTKYSPSFQGQVTISADKSISTAYLQLSSLKASDTAMYYCASYEGYYERFGYWGQGTLVTVSS
VL: DIVMTQSPDSLAVSLGERATINCKSSQSLLDRDGKTYLNWLQQKPGQSPKRLIYLVSKLDSGVPDRFSGSGSGTDFTLTISSLQAEDLAVYYCWQDTHFPYTFGQGTKLEIK
notes: as for B2
B4: HFB6-4hz23-hG1 (antibody, human IgG1, V domains shown)
VH: QVQLQESGPGLVKPSGTLSLTCAVSGFNIKDTYIHWVRQPPGKGLEWIGRNDPANGNTKYNPSFKSRATISADKSKNQASLKLSSVTAADTAVYYCASYEGYYERFGYWGQGTLVTVSS
VL: DIVMTQSPDSLAVSLGERATINCKSSQSLLDRDGKTYLNWLQQKPGQSPKRLIYLVSKLDSGVPDRFSGSGSGTDFTLTISSLQAEDLAVYYCWQDTHFPYTFGQGTKLEIK
notes: as for B2
B5: HFB6-4hz22-hG1 (antibody, human IgG1, V domains shown)
VH: EVQLVESGGGLVQPGGSLKLSCATSGFNIKDTYIHWVRQASGKGLEWIGRNDPANGNTKYAASFKGRATISADDSKNTAYLQLNSLKTEDTAVYYCASYEGYYERFGYWGQGTLVTVSS
VL: DIVMTQSPDSLAVSLGERATINCKSSQSLLDRDGKTYLNWLQQKPGQSPKRLIYLVSKLDSGVPDRFSGSGSGTDFTLTISSLQAEDLAVYYCWQDTHFPYTFGQGTKLEIK
notes: as for B2
B6: HFB6-5hz9-hG1 (antibody, human IgG1, V domains shown)
VH: EVQLVESGGGLVQPGRSLRLSCTASGVNIKDTYMYWVRQAPGKGLEWVGRIDPANGYTRYTASFKGRATISADGSKSIAYLQMNSLKTEDTAVYYCAVYDGYYESFDVWGQGTLVTVSS
VL: DVVMTQSPLSLPVTLGQPASISCRSSQSLLDSDGKTYLNWLQQRPGQSPRRLIYLVSKRDSGVPDRFSGSGSGTDFTLKISRVEAEDLGVYYCWQGTLFPRTFGQGTKLEIK
notes: Humanized variant of HFB6-5, human IgG1 (hG1)
B7: HFB6-5hz11-hG1 (antibody, human IgG1, V domains shown)
VH: QVQLQESGPGLVKPSGTLSLTCAASGVNIKDTYMYWVRQPPGKGLEWIGRIDPANGYTRYNPSFKSRATISADKSKNQASLKLSSVTAADTAVYYCAVYDGYYESFDVWGQGTLVTVSS
VL: DVVMTQSPLSLPVTLGQPASISCRSSQSLLDSDGKTYLNWLQQRPGQSPRRLIYLVSKRDSGVPDRFSGSGSGTDFTLKISRVEAEDLGVYYCWQGTLFPRTFGQGTKLEIK
notes: as for B6
B8: HFB6-5hz15-hG1 (antibody, human IgG1, V domains shown)
VH: EVQLVESGGGLVQPGRSLRLSCTASGVNIKDTYMYWVRQAPGKGLEWVGRIDPANGYTRYTASFKGRATISADGSKSIAYLQMNSLKTEDTAVYYCAVYDGYYESFDVWGQGTLVTVSS
VL: EIVLTQSPGTLSVSPGERATISCRSSQSLLDSDGKTYLNWLQQKPGQAPRRLIYLVSKRDTGVPDRFSGSGSGTDFTLTISRVEPEDFAVYYCWQGTLFPRTFGQGTKLEIK
notes: as for B6
B9: HFB6-5hz12-hG1 (antibody, human IgG1, V domains shown)
VH: EVQLVQSGAEVKKPGESLKISCKGSGVNIKDTYMYWVRQMPGKGLEWIGRIDPANGYTRYSPSFQGQVTISADKSISTAYLQLSSLKASDTAMYYCAVYDGYYESFDVWGQGTLVTVSS
VL: DVVMTQSPLSLPVTLGQPASISCRSSQSLLDSDGKTYLNWLQQRPGQSPRRLIYLVSKRDSGVPDRFSGSGSGTDFTLKISRVEAEDLGVYYCWQGTLFPRTFGQGTKLEIK
notes: as for B6
B10: HFB6-5hz10-hG1 (antibody, human IgG1, V domains shown)
VH: EVQLVESGGGLVQPGGSLKLSCAASGVNIKDTYMYWVRQASGKGLEWIGRIDPANGYTRYAASFKGRATISADDSKNTAYLQLNSLKTEDTAVYYCAVYDGYYESFDVWGQGTLVTVSS
VL: DVVMTQSPLSLPVTLGQPASISCRSSQSLLDSDGKTYLNWLQQRPGQSPRRLIYLVSKRDSGVPDRFSGSGSGTDFTLKISRVEAEDLGVYYCWQGTLFPRTFGQGTKLEIK
notes: as for B6
B11: HFB6-5hz1-hG1 (antibody, human IgG1, V domains shown)
VH: QVQLVQSGAEVKKPGSSVKVSCKASGVNIKDTYMYWVRQAPGQGLEWIGRIDPANGYARYAQKFQGRATITADESTSTAYMELSSLRSEDTAVYYCAVYDGYYESFDVWGQGTLVTVSS
VL: DIQMTQSPSSLSASVGDRVTITCRSSQSLLDSDGKSYLNWLQQKPGKAPKRLIYLVSKLDSGVPSRFSGSGSGTDFTLTISSLQPEDFATYYCWQGTLFPRTFGQGTKLEIK
notes: as for B6
B12: HFB6-5hz13-hG1 (antibody, human IgG1, V domains shown)
VH: QVQLVQSGAEVKKPGSSVKVSCKASGVNIKDTYMYWVRQAPGQGLEWIGRIDPANGYARYAQKFQGRATITADESTSTAYMELSSLRSEDTAVYYCAVYDGYYESFDVWGQGTLVTVSS
VL: EIVLTQSPGTLSVSPGERATISCRSSQSLLDSDGKTYLNWLQQKPGQAPRRLIYLVSKRDTGVPDRFSGSGSGTDFTLTISRVEPEDFAVYYCWQGTLFPRTFGQGTKLEIK
notes: as for B6
B13: HFB6-5hz3-hG1 (antibody, human IgG1, V domains shown)
VH: EVQLVESGGGLVQPGRSLRLSCTASGVNIKDTYMYWVRQAPGKGLEWVGRIDPANGYTRYTASFKGRATISADGSKSIAYLQMNSLKTEDTAVYYCAVYDGYYESFDVWGQGTLVTVSS
VL: DIQMTQSPSSLSASVGDRVTITCRSSQSLLDSDGKSYLNWLQQKPGKAPKRLIYLVSKLDSGVPSRFSGSGSGTDFTLTISSLQPEDFATYYCWQGTLFPRTFGQGTKLEIK
notes: as for B6
B14: HFB6-5hz7-hG1 (antibody, human IgG1, V domains shown)
VH: QVQLVQSGAEVKKPGSSVKVSCKASGVNIKDTYMYWVRQAPGQGLEWIGRIDPANGYARYAQKFQGRATITADESTSTAYMELSSLRSEDTAVYYCAVYDGYYESFDVWGQGTLVTVSS
VL: DVVMTQSPLSLPVTLGQPASISCRSSQSLLDSDGKTYLNWLQQRPGQSPRRLIYLVSKRDSGVPDRFSGSGSGTDFTLKISRVEAEDLGVYYCWQGTLFPRTFGQGTKLEIK
notes: as for B6
B15: HFB6-5hz5-hG1 (antibody, human IgG1, V domains shown)
VH: QVQLQESGPGLVKPSGTLSLTCAASGVNIKDTYMYWVRQPPGKGLEWIGRIDPANGYTRYNPSFKSRATISADKSKNQASLKLSSVTAADTAVYYCAVYDGYYESFDVWGQGTLVTVSS
VL: DIQMTQSPSSLSASVGDRVTITCRSSQSLLDSDGKSYLNWLQQKPGKAPKRLIYLVSKLDSGVPSRFSGSGSGTDFTLTISSLQPEDFATYYCWQGTLFPRTFGQGTKLEIK
notes: as for B6
B16: HFB6-5hz6-hG1 (antibody, human IgG1, V domains shown)
VH: EVQLVQSGAEVKKPGESLKISCKGSGVNIKDTYMYWVRQMPGKGLEWIGRIDPANGYTRYSPSFQGQVTISADKSISTAYLQLSSLKASDTAMYYCAVYDGYYESFDVWGQGTLVTVSS
VL: DIQMTQSPSSLSASVGDRVTITCRSSQSLLDSDGKSYLNWLQQKPGKAPKRLIYLVSKLDSGVPSRFSGSGSGTDFTLTISSLQPEDFATYYCWQGTLFPRTFGQGTKLEIK
notes: as for B6
B17: HFB6-5hz8-hG1 (antibody, human IgG1, V domains shown)
VH: QVQLVQSGAEVKKPGASVKVSCKASGVNIKDTYMYWVRQAPGQGLEWIGRIDPANGYTRYAQKFQGRATITADTSTSTVYMELSSLRSEDTAVYYCAVYDGYYESFDVWGQGTLVTVSS
VL: DVVMTQSPLSLPVTLGQPASISCRSSQSLLDSDGKTYLNWLQQRPGQSPRRLIYLVSKRDSGVPDRFSGSGSGTDFTLKISRVEAEDLGVYYCWQGTLFPRTFGQGTKLEIK
notes: as for B6
B18: HFB6-5hz4-hG1 (antibody, human IgG1, V domains shown)
VH: EVQLVESGGGLVQPGGSLKLSCAASGVNIKDTYMYWVRQASGKGLEWIGRIDPANGYTRYAASFKGRATISADDSKNTAYLQLNSLKTEDTAVYYCAVYDGYYESFDVWGQGTLVTVSS
VL: DIQMTQSPSSLSASVGDRVTITCRSSQSLLDSDGKSYLNWLQQKPGKAPKRLIYLVSKLDSGVPSRFSGSGSGTDFTLTISSLQPEDFATYYCWQGTLFPRTFGQGTKLEIK
notes: as for B6
B19: HFB6-5hz14-hG1 (antibody, human IgG1, V domains shown)
VH: QVQLVQSGAEVKKPGASVKVSCKASGVNIKDTYMYWVRQAPGQGLEWIGRIDPANGYTRYAQKFQGRATITADTSTSTVYMELSSLRSEDTAVYYCAVYDGYYESFDVWGQGTLVTVSS
VL: EIVLTQSPGTLSVSPGERATISCRSSQSLLDSDGKTYLNWLQQKPGQAPRRLIYLVSKRDTGVPDRFSGSGSGTDFTLTISRVEPEDFAVYYCWQGTLFPRTFGQGTKLEIK
notes: as for B6
B20: HFB6-5hz2-hG1 (antibody, human IgG1, V domains shown)
VH: QVQLVQSGAEVKKPGASVKVSCKASGVNIKDTYMYWVRQAPGQGLEWIGRIDPANGYTRYAQKFQGRATITADTSTSTVYMELSSLRSEDTAVYYCAVYDGYYESFDVWGQGTLVTVSS
VL: DIQMTQSPSSLSASVGDRVTITCRSSQSLLDSDGKSYLNWLQQKPGKAPKRLIYLVSKLDSGVPSRFSGSGSGTDFTLTISSLQPEDFATYYCWQGTLFPRTFGQGTKLEIK
notes: as for B6

Target: T1, human BTLA
Assay: flow cytometry, HEK293 cells overexpressing human BTLA
Protocol: HEK293 cells overexpressing human BTLA and Expi293 cells overexpressing cynomolus BTLA were incubated with different concentrations of humanized anti-BTLA antibodies. Anti-BTLA antibody binding to target cells were quantified with an AF647-conjugated anti-human IgG Fc secondary antibody by flow cytometry.

Binding result, binds:
B1
B2
B3
B4
B5
B6
B7
B8
B9
B10
B11
B12
B13
B14
B15
B16
B17
B18
B19
B20
